Experimental data as given in the supplement of paper PMC10567573.

B1: ZNF511 (parent)
chain: EPLPVERDPAAGAAPFRFVARPVR

Variants of: B1
Assay: protein stability index of a GFP-peptide fusion (GPS, HEK-293T) (PSI 1-6); higher = more stable
Settings: c terminus: a fixed tail appended
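Also: lentivirally expressed fusions sorted by FACS into six bins by GFP to DsRed ratio, PSI derived from sequencing read proportions per bin multiplied by bin number.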

Row | Variant | protein stability index
1 | EPLPVERDPAAGAAWFRFVARPVR [P15W] | 2.32
2 | EPLPVERDPAAGAAVFRFVARPVR [P15V] | 3.12
3 | EPLPVERDPAAGAAPFAFVARPVR [R17A] | 2.96
4 | EPLPVERDPAAGAAPFKFVARPVR [R17K] | 4.42
5 | EPLPVERDPAAGAAPFNFVARPVR [R17N] | 3.45
6 | EPLPVERDPAAGAAPFFFVARPVR [R17F] | 2.56
7 | EPLPVERDPAAGAAPFLFVARPVR [R17L] | 3.64
8 | EPLPVERDPAAGAAPFVFVARPVR [R17V] | 4.21
9 | EPLPVERDPAAGAAPFWFVARPVR [R17W] | 3.4
10 | EPLPVERDPAAGAAPFQFVARPVR [R17Q] | 4.65
11 | EPLPVERDPAAGAAPFYFVARPVR [R17Y] | 2.98
12 | EPLPVERDPAAGAAPFDFVARPVR [R17D] | 4.13
13 | EPLPVERDPAAGAAPFCFVARPVR [R17C] | 3.88
14 | EPLPVERDPAAGAAPFGFVARPVR [R17G] | 4.86
15 | EPLPVERDPAAGAAPFPFVARPVR [R17P] | 4.88
16 | EPLPVERDPAAGAAPFMFVARPVR [R17M] | 3.88
17 | EPLPVERDPAAGAAPFHFVARPVR [R17H] | 4.17
18 | EPLPVERDPAAGAAPFSFVARPVR [R17S] | 3.87
19 | EPLPVERDPAAGAAPFIFVARPVR [R17I] | 3.6
20 | EPLPVERDPAAGAAPFEFVARPVR [R17E] | 4.94
21 | EPLPVERDPAAGAAPFTFVARPVR [R17T] | 4.19
22 | EPLPVERDPAAGAAPFRFVARQVR [P22Q] | 2.02
23 | EPLPVERDPAAGAAPFRFVAREVR [P22E] | 2.62
24 | EPLPVERDPAAGAAPFRFVARHVR [P22H] | 1.93

Row | Variant | protein stability index
25 | EPLPVERDPAAGAAPFRFVARDVR [P22D] | 2.77
26 | EPLPVERDPAAGAAPFRFVARYVR [P22Y] | 2.32
27 | EPLPVERDPAAGAAPFRFVARSVR [P22S] | 2.51
28 | EPLPVERDPAAGAAPFRFVARFVR [P22F] | 3.22
29 | EPLPVERDPAAGAAPFRFVARWVR [P22W] | 2.66
30 | EPLPVERDPAAGAAPFRFVARVVR [P22V] | 2.6
31 | EPLPVERDPAAGAAPFRFVARNVR [P22N] | 2.31
32 | EPLPVERDPAAGAAPFRFVARGVR [P22G] | 1.85
33 | EPLPVERDPAAGAAPFRFVARLVR [P22L] | 2.33
34 | EPLPVERDPAAGAAPFRFVARAVR [P22A] | 2.64
35 | EPLPVERDPAAGAAPFRFVARMVR [P22M] | 2.48
36 | EPLPVERDPAAGAAPFRFVARKVR [P22K] | 2.22
37 | EPLPVERDPAAGAAPFRFVARTVR [P22T] | 1.92
38 | EPLPVERDPAAGAAPFRFVARIVR [P22I] | 3.15
39 | EPLPVERDPAAGAAPFRFVARCVR [P22C] | 2.17
40 | EPLPVERDPAAGAAPFRFVARRVR [P22R] | 2.8
41 | EPLPVERDPAAGAAPFRFVAMPVR [R21M] | 1.95
42 | EPLPVERDPAAGAAPFRFVAEPVR [R21E] | 2.35
43 | EPLPVERDPAAGAAPFRFVANPVR [R21N] | 1.59
44 | EPLPVERDPAAGAAPFRFVAHPVR [R21H] | 2.18
45 | EPLPVERDPAAGAAPFRFVACPVR [R21C] | 1.7
46 | EPLPVERDPAAGAAPFRFVAGPVR [R21G] | 2.03
47 | EPLPVERDPAAGAAPFRFVAKPVR [R21K] | 2.71
48 | EPLPVERDPAAGAAPFRFVADPVR [R21D] | 2.27

Row | Variant | protein stability index
49 | EPLPVERDPAAGAAPFRFVALPVR [R21L] | 2.07
50 | EPLPVERDPAAGAAPFRFVAWPVR [R21W] | 1.41
51 | EPLPVERDPAAGAAPFRFVAFPVR [R21F] | 2.51
52 | EPLPVERDPAAGAAPFRFVAPPVR [R21P] | 3.54
53 | EPLPVERDPAAGAAPFRFVAVPVR [R21V] | 1.8
54 | EPLPVERDPAAGAAPFRFVAQPVR [R21Q] | 2.96
55 | EPLPVERDPAAGAAPFRFVASPVR [R21S] | 2.14
56 | EPLPVERDPAAGAAPFRFVAIPVR [R21I] | 2.58
57 | EPLPVERDPAAGAAPFRFVATPVR [R21T] | 2.57
58 | EPLPVERDPAAGAAPFRFVAAPVR [R21A] | 2.46
59 | EPLPVERDPAAGAAPFRFVAYPVR [R21Y] | 1.76
60 | EPLPVERDPAAGAAPFRFIARPVR [V19I] | 2.89
61 | EPLPVERDPAAGAAPFRFEARPVR [V19E] | 4.57
62 | EPLPVERDPAAGAAPFRFKARPVR [V19K] | 4.83
63 | EPLPVERDPAAGAAPFRFSARPVR [V19S] | 4.62
64 | EPLPVERDPAAGAAPFRFWARPVR [V19W] | 3.65
65 | EPLPVERDPAAGAAPFRFQARPVR [V19Q] | 2.99
66 | EPLPVERDPAAGAAPFRFPARPVR [V19P] | 5.1
67 | EPLPVERDPAAGAAPFRFMARPVR [V19M] | 4.1
68 | EPLPVERDPAAGAAPFRFAARPVR [V19A] | 4.47
69 | EPLPVERDPAAGAAPFRFHARPVR [V19H] | 1.62
70 | EPLPVERDPAAGAAPFRFCARPVR [V19C] | 3.22
71 | EPLPVERDPAAGAAPFRFRARPVR [V19R] | 4.22
72 | EPLPVERDPAAGAAPFRFNARPVR [V19N] | 4.36

Row | Variant | protein stability index
73 | EPLPVERDPAAGAAPFRFLARPVR [V19L] | 3.97
74 | EPLPVERDPAAGAAPFRFYARPVR [V19Y] | 4.31
75 | EPLPVERDPAAGAAPFRFFARPVR [V19F] | 3.88
76 | EPLPVERDPAAGAAPFRFDARPVR [V19D] | 4.67
77 | EPLPVERDPAAGAAPFRFGARPVR [V19G] | 5.14
78 | EPLPVERDPAAGAAPFRFTARPVR [V19T] | 3.97
79 | EPLPVERDPAAGAAPFRFVFRPVR [A20F] | 3.42
80 | EPLPVERDPAAGAAPFRFVCRPVR [A20C] | 1.61
81 | EPLPVERDPAAGAAPFRFVKRPVR [A20K] | 1.97
82 | EPLPVERDPAAGAAPFRFVWRPVR [A20W] | 2.56
83 | EPLPVERDPAAGAAPFRFVMRPVR [A20M] | 2.49
84 | EPLPVERDPAAGAAPFRFVSRPVR [A20S] | 2.05
85 | EPLPVERDPAAGAAPFRFVQRPVR [A20Q] | 2.4
86 | EPLPVERDPAAGAAPFRFVHRPVR [A20H] | 2.81
87 | EPLPVERDPAAGAAPFRFVLRPVR [A20L] | 3.35
88 | EPLPVERDPAAGAAPFRFVVRPVR [A20V] | 2.46
89 | EPLPVERDPAAGAAPFRFVYRPVR [A20Y] | 4.17
90 | EPLPVERDPAAGAAPFRFVERPVR [A20E] | 3.03
91 | EPLPVERDPAAGAAPFRFVIRPVR [A20I] | 3.21
92 | EPLPVERDPAAGAAPFRFVDRPVR [A20D] | 2.46
93 | EPLPVERDPAAGAAPFRFVNRPVR [A20N] | 2.61
94 | EPLPVERDPAAGAAPFRFVTRPVR [A20T] | 2.8
